Assay results taken from patent US20140017790A1, “CONTROL AGENT FOR CONTROLLING UNDIFFERENTIATED STATE AND USE THEREOF” (RIKEN, priority 2011, published 2014).

Legend:
[1] = tested on: STAT3; assay: Western blotting, phosphorylation of STAT3 in human iPS cells; assay type: cell-based; details: feeder conditions, 6 days, negative control (bFGF) = 1
Procedure: The human iPS cells were cultured under feeder conditions in the same manner as in Example 8, and the feeder cells were removed 6 days after the start of the culture. Then, in the same manner as in Example 3, the cultured human iPS cells were washed, suspended, homogenized, and centrifuged to collect the supernatant as a cell extract. Thereafter, a target protein was detected by Western blotting in the same manner as in Example 3, except that the above supernatant was used. Furthermore, as a negative control, the target protein was detected by carrying out the same procedures except that bFGF was added instead of the CCL2.
Then, the ratio of the phosphorylated STAT3 to the non-phosphorylated STAT3 (pSTAT3/STAT3) was determined. Assuming that the value of pSTAT3/STAT3 in the negative control was “1”, the relative value was calculated.

[2] = tested on: mouse iPS cells; assay: quantitative RT-PCR of undifferentiated marker genes, CCL2 overexpressed in mouse iPS cells; assay type: cell-based; details: CCL2 overexpressed (Ccl2 expression vector), feeder free, 24 hours
Procedure: A PrimeScript RT-PCR Kit (trade name, TAKARA BIO INC.), an ABI 7500 Fast real time PCR system (trade name, Applied BioSystems), and a SYBR (registered trademark) Premix Ex Taq (trade name, TAKARA BIO INC.) were used in accordance with their protocols. PCR was carried out by conducting 40 cycles of treatment with a treatment at 94° C. for 5 second and at 62.5° C. for 20 seconds as 1 cycle. The expression level of each gene was calculated by normalizing the relative amount of mRNA in the gene to Gapdh mRNA according to the 2^−ΔΔ^CT method (Thomse R, Solvsten C A, Linnet T E, et al., Analysis of qPCR data by converting exponentially related Ct values into linearly related XO values. J Bioinform Comput Biol 2010: 8: 885-900.).
In the following manner, CCL2 was overexpressed in the mouse iPS cells, and the expression levels of undifferentiated marker genes were examined. The undifferentiated marker genes were the Ecat1 gene, Cripto gene, Oct3/4 gene, Zfp42 gene, Esg1 gene, Eras gene, Fgf4 gene, Dax1 gene, Nanog gene, Sox2 gene, Klf4 gene, cMyc gene, Tbx3 gene, and Eed gene.
A Ccl2 expression vector that overexpresses CCL2 was constructed. The CCL2 to be expressed was a mouse-derived protein having a full-length amino acid sequence of SEQ ID NO: 3. First, using a Gateway Technology (Invitrogen), a full-length cDNA (SEQ ID NO: 6) coding for the CCL2 was cloned into a pENTER/D-TOPO vector. The cloned sequence was confirmed, and thereafter, the full-length cDNA was inserted into an EF-α1 promoter-containing pEF-DEST51 vector (Invitrogen) using a Gateway LR Clonase II Enzyme Mix (Invitrogen), thus constructing the Ccl2 expression vector. The Ccl2 expression vector was purified using an Endotoxin free Plasmid maxi prep kit (Qiagen) in accordance with its protocol.
Next, the mouse iPS cells cultured under the feeder free conditions were seeded in a 12-well dish at a density of 3×10^5 cells/well. The amount of a medium to be added to the dish was set to 1 ml/well. Then, using 16 μl of a Lipofectamine 2000 (Invitrogen) and 4.8 μg of the Ccl2 expression vector per well, the mouse iPS cells were transfected with the Ccl2 expression vector. These mouse iPS cells were cultured for another 24 hours under feeder free conditions. Thereafter, total RNAs were extracted, and the expression levels of the undifferentiated marker genes were examined. The expressions of the undifferentiated marker genes were examined by the quantitative RT-PCR using the above-described primers. […] Then, the fold changes in expression level relative to the negative control were calculated.

B1: CCL2: mouse recombinant CCL2 (MCP-1, #479-JE-010, R&D Systems); in Examples 1, 3, 4(1), 5 mouse CCL2 (SEQ ID NO: 3) overexpressed from Ccl2 expression vector (protein, listed as Mus musculus)
chain: MQVPVMLLGLLFTVAGWSIHVLAQPDAVNAPLTCCYSFTSKMIPMSRLESYKRITSSRCPKEAVVFVTKLKREVCADPKKEWVQTYIKNLDRNQMRSEPTTLFKTASALRSSAPLNVKLTRKSEANASTTFSTTTSSTSVGVTSVTVN
In the case of B1, the “ratio of phosphorylated STAT3 to non-phosphorylated STAT3 (pSTAT3/STAT3), relative value” [1] is reported as “about 7.5 fold”, the “expression of the Klf4 gene, fold change relative to negative control” value [2] is reported as “increased markedly” and the “expression of the Nanog gene, fold change relative to negative control” value [2] is reported as “increased markedly”. For the same molecule, the “expression of the Sox2 gene, fold change relative to negative control” value [2] was “increased markedly” and the “expression of the Tbx3 gene, fold change relative to negative control” value [2] was “increased markedly”.
